The values below come from the RNAGym collection of RNA variant scans (doi:10.1073/pnas.2313332121).

Sequences and labels used below:
B1: TPR t1 (parent)
chain: GACCAAUCUGCCCUCAGAGCUCGAGAACAUCUUCGGAUGCAGAGGAGGCAGGCUUCGGUGGCGCGAUAGCGCCAACGUCCUCAACCUCCAAUGCAUCCCACCACAUGAUGAUGCCUGAAGAGCCUUGGUUUUUUG

The variants in the data set derive from B1. Description: polymerase ribozyme fitness, log enrichment relative to wild type (log ratio); higher = more active; in vitro selection for triplet polymerase activity. The essentials: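 Input and output libraries were sequenced on Illumina after a single in vitro selection round, run in triplicate on PCR-built, transcribed mutant libraries of each subunit of a heterodimeric triplet polymerase ribozyme. Selection annealed libraries to a biotinylated primer, the partner subunit and triplets, incubated them frozen at −7 °C, then gel-excised extended constructs for streptavidin-bead capture and RT-PCR. Genotypes with ≥10 input reads and ≥1 read per output were kept. Fitness is the logarithm, taken in base 2, of genotype enrichment divided by wild-type enrichment, using inverse-variance-weighted replicate averages.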
Take C70A A105C G120C: the “polymerase ribozyme fitness (log ratio)” value was -5.66.
Under A66G G77A C94U C115A U132A stands -0.858; under U67C C85U, -4.67.
Under G71C G110A stands -2.2; under G69C G77U U87A G117U, -5.49; under A66G U109A, -6.35.
Under G71A C72G C114U stands -4.69; under G71A G120U, 0.349.
Regarding G69A C89G, the “polymerase ribozyme fitness (log ratio)” value is -5.32.
Under C70U G77C stands -1.78; under G69A C86A C99U G110C, -6.84; under C70U A111G G120C, -4.93.
The result for C70U U81G A84C G122A reads -5.65.
The result for G69U C72U G117A reads -0.708.
For G69A U125A, the “polymerase ribozyme fitness (log ratio)” value was -3.21.
Under C70U U106A stands -0.205; under G71A C124U, 1.42; under G69U C73G A105U, -4.07.
The result for G71A A74C A105C reads -5.44.
The result for A66G U116C reads -2.62; that for C70A U125A G128A, -3.04.
As to G71A U133G, the “polymerase ribozyme fitness (log ratio)” value is -0.389.
Under G69U C88A A90U stands 0.178; under G69C G122U U130C, -1.15; under A66U A84U G110C U130C, -5.62.
The result for A66U A83U reads -1.4; that for G71A A119G, -0.102; that for G71A A83G U133G, -2.31.
Under A66C C94U stands -0.92.
Consider A68G U106A, for which the “polymerase ribozyme fitness (log ratio)” value was -3.22.
Under A66U U125A stands -2.11; under A68G C82U, -2.87.
Under A66U stands -0.954; under A66G, -0.466.
The result for A66C reads -1.32; that for C70U G128U U133G, -2.39; that for C70U A118U C123A U130C, -0.647.
G69U U126G: the “polymerase ribozyme fitness (log ratio)” value was -0.571.
For the variant C70A G71C, the “polymerase ribozyme fitness (log ratio)” value was -4.68.
The result for G69U C70A reads -1.51; that for G69U C70U, -0.561; that for G69C C85A, -2.84.
Under G69C C85U stands -1.8.
Under U67C G69A U81C C104A G110C U112C stands -8.47.
In the case of C70U A103U G120C U131C, the “polymerase ribozyme fitness (log ratio)” value is -5.74.
The result for G71A C82A reads -1.72.
As for G65C C123G, the “polymerase ribozyme fitness (log ratio)” value was -3.83.
Under C70G U78A stands -2.44.
As for G69U U130A, the “polymerase ribozyme fitness (log ratio)” value was -0.136.
The result for G71A A91C C114U U133C reads -2.15; that for G69A U132C, -2.86; that for C70A C80G C82G, -7.42.
Take G69U C89G: the “polymerase ribozyme fitness (log ratio)” value is -0.225.
For C70U G122A U126A, the “polymerase ribozyme fitness (log ratio)” value was -3.62.
Consider G69A C124A, for which the “polymerase ribozyme fitness (log ratio)” value is -0.616.
Under G71C C124U stands 0.16.
Under C64U G135U stands -0.52; under C70U C72G C115U G117A, -5.53; under C70G C79G C98U U109G U125A, -7.56.
The result for G71A U92A A121U reads -2.31; that for C70A G113U, -2.82.
Regarding C70A G113A, the “polymerase ribozyme fitness (log ratio)” value is -2.41.
The result for G69U A121C reads 2.82.
The result for G69U A121G reads 2.47.
The result for C70G C94A reads -3.62; that for C70U C85U, -0.917; that for C70U C85A, -2.12.
G69U C89G U106A G120C G122C: the “polymerase ribozyme fitness (log ratio)” value is -1.79.
C70U C73A C102U A118U: the “polymerase ribozyme fitness (log ratio)” value is -2.08.
The result for G69C U92A U109G reads -6.72; that for G71A U130C, 0.53; that for C70U C98U, -1.16.
The result for G71A C102A reads -2.99.
The result for G69A A84U C94U reads -3.36.
G69U G110C: the “polymerase ribozyme fitness (log ratio)” value was -2.61.
The result for G69U G110U reads 0.852.
Under C70U U78C C80A C97U U129A stands -5.63.
As for G71A C115A C123U, the “polymerase ribozyme fitness (log ratio)” value was -2.76.
Under A66C G69A stands -3.84; under G69U G128A, -1.19.
Under C70U C101A stands -1.9.
The result for G69A C79A reads -3.99; that for G69C U92G G120C, -3.22; that for G71A A84C, -0.48.
Regarding G69U U81A, the “polymerase ribozyme fitness (log ratio)” value worked out at 0.151.
The result for G69A G93U A111G G122A reads -5.44; that for G69C C88A, -2.15; that for C70U G113U, -2.81.
Under A68C U116A A119U C124U stands -7.83; under A68G U125A, -3.61; under G69A C73G G120U, -5.64.
Under A68G C86U stands -2.68.
Take C70U C102U U132A: the “polymerase ribozyme fitness (log ratio)” value was -2.52.
The result for G71C C82A U112A A118U reads -0.627.
The result for A66C A90G C114G reads -4.05; that for G69A C102A U112G U132A, -5.6; that for G71A G77A U78G, -4.6.
The result for G69A G117U C124A reads -4.19; that for A66U U78C C124U, 0.592; that for C64U G120A G135A, 0.278.
Regarding G71A G120U U126C, the “polymerase ribozyme fitness (log ratio)” value is -1.26.
The result for C70A C82A U92C reads -3.72.
The result for G69U G110A U125A G127A reads -0.849; that for G69A C123U, -0.983.
G69A C123G: the “polymerase ribozyme fitness (log ratio)” value was -0.288.
The result for G69A C123A reads -1.81.
Take G69U U133A: the “polymerase ribozyme fitness (log ratio)” value was -0.00372.
Regarding G69U C76U G93C U132C, the “polymerase ribozyme fitness (log ratio)” value was -2.06.
Under G69A C73U U96G stands -3.55; under C70G C124U U130C, -0.523; under G71C C73U C79G A90U, -6.83.
Under G69C C94A U112G C124G stands -1.99; under A66U U130G, -1.71.
Turning to C70U U78G U116G, the “polymerase ribozyme fitness (log ratio)” value was -2.23.
As to G69U C82G, the “polymerase ribozyme fitness (log ratio)” value was -1.46.
For G69U C82U, the “polymerase ribozyme fitness (log ratio)” value is -0.267.
Regarding C70G C98U, the “polymerase ribozyme fitness (log ratio)” value is -2.99.
For the variant G69U C82A C104U, the “polymerase ribozyme fitness (log ratio)” value amounted to 0.152.
Under U67A C123U stands -5.81; under G69C G113C, -4.05.
Under A66G C79G G120A stands -3.49; under C70G U106A, -2.52; under A66C U130G U133A, -1.91.
Under C64U G117A stands -1.12; under C70A C124U U133C, 0.767.
G69C G120U: the “polymerase ribozyme fitness (log ratio)” value was -0.245.
The result for G69U C98U reads 0.082.
Regarding C70U C80U U96A U106C, the “polymerase ribozyme fitness (log ratio)” value was -4.08.
With C70U U92G A118G, the “polymerase ribozyme fitness (log ratio)” value was -3.55.
Under C70U C88U stands -0.847.
Regarding C70A U78C C102U, the “polymerase ribozyme fitness (log ratio)” value was -4.3.
Under C70A A84U U87A stands -2.24; under G69A U78G A118U, -1.62; under G71C C104A, -3.63.
In the case of G71A U116A, the “polymerase ribozyme fitness (log ratio)” value is -3.85.
Under G71A U116C stands -1.26.
Regarding C70U A90C U92C C102A G120C U132A, the “polymerase ribozyme fitness (log ratio)” value is -5.71.
The result for G71A U96A U116A reads -3.94; that for G71C G113A, -1.54; that for G69C U116C G120C, -0.894.
Regarding G71A G110U, the “polymerase ribozyme fitness (log ratio)” value was -2.36.
The result for G69C C114U reads -1.95; that for G69U A119G, 1.7; that for G69U U129G, -1.02.
The result for G69C U106A G120U G128U reads -2.78; that for C70U U109G, -4.21; that for C70G U130G, -4.08.
The result for G65U G71A reads -4.69; that for G69U U112G C124A U133C, 2.87; that for C70U C88A C115U, -3.07.
In the case of C70U C97G, the “polymerase ribozyme fitness (log ratio)” value is -5.32.
C70G U78C C114U: the “polymerase ribozyme fitness (log ratio)” value was -5.32.
The result for C70U G128A reads -2.28.
The result for G69U A100U reads -0.417; that for C70U U87C, 0.738; that for A66U G93C C115U U116C, -5.96.
For the variant G71A A111C, the “polymerase ribozyme fitness (log ratio)” value was -0.4.
With A66G C82U C88G C124U, the “polymerase ribozyme fitness (log ratio)” value is -0.202.
Turning to A68G G69C C82U G113A G128U, the “polymerase ribozyme fitness (log ratio)” value was -4.89.
The result for G69U G107A reads -3.34; that for G69A C86G A121U, -1.34; that for C70A U106A, -1.51.
With C70G A100U G117A A118C, the “polymerase ribozyme fitness (log ratio)” value is -6.05.
Under G69U U78G C102U stands -0.192.
Under C70U C104U U130G stands -0.752.
Under C70A G117U A121C U130C stands -4.1; under G69U C115A G120A, 0.825.
